Test results taken from patent publication US20260232827A1 (Zymeworks, published 2026).

Columns and labels:
[1] = target: T1, human sodium-dependent phosphate transporter 2B (NaPi2b) (human, UniProt O95436 1-690); assay: flow cytometry on IGROV-1 cells (endogenous NaPi2b), 24 h at 4 C, anti-human IgG Fc AF647
T1 construct: UniProt ID is given as 095436 [sic]; also called hNaPi2b; Hu NaPi2b
T1 sequence: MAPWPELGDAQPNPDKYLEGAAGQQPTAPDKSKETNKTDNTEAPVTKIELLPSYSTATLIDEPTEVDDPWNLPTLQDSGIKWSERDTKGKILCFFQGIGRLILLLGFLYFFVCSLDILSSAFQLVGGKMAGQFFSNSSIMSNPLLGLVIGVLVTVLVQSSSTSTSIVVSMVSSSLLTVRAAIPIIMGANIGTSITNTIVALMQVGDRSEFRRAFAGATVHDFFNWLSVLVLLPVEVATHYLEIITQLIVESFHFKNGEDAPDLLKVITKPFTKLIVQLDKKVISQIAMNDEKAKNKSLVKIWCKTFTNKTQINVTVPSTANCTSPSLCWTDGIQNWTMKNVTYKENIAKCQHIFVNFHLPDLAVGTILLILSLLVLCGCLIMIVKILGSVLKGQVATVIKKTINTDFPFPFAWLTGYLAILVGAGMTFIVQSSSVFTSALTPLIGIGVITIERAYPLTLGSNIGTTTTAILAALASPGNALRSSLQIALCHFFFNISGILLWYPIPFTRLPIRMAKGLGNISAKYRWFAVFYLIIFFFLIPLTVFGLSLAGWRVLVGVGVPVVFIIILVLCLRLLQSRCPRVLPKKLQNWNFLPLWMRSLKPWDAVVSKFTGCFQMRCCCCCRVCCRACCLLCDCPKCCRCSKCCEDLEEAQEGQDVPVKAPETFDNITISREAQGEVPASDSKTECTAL

human NaPi2a = target: T2, human NaPi2a (human, UniProt Q06495 1-639); assay: flow cytometry on HEK293-6e cells transfected with human NaPi2a, 24 h at 4 C, anti-human IgG Fc AF647
T2 construct: whole, on cells; also called Hu NaPi2a; SLC34A1
T2 sequence (looked up): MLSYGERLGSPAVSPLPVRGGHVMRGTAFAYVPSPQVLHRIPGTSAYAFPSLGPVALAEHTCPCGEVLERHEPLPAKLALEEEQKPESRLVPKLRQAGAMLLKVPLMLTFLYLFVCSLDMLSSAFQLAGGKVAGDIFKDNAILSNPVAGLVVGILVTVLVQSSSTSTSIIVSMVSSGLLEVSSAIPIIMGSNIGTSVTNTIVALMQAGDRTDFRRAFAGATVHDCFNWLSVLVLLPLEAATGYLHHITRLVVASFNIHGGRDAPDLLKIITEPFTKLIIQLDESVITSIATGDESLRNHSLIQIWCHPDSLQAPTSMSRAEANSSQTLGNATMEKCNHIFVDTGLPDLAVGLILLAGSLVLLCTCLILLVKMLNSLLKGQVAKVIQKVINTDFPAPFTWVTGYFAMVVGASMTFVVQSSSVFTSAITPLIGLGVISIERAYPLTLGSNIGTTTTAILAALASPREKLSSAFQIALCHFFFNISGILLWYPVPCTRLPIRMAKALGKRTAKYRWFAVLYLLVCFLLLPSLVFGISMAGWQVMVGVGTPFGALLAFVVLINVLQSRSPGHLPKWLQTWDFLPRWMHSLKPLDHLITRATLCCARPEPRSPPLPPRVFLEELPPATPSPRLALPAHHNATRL

[2] = target: T3, Construct 7 (human NaPi2b del 317-326) (human, UniProt O95436 1-690); assay: flow cytometry, transfected HEK293-6e cells, antibody 200 nM;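 note: cells incubated with antibody for 24 h at 4 °C, background taken as average MFI of unstained cells without primary antibody, at least 1,000 events per well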
T3 construct: also called CL_#29921
T3 sequence: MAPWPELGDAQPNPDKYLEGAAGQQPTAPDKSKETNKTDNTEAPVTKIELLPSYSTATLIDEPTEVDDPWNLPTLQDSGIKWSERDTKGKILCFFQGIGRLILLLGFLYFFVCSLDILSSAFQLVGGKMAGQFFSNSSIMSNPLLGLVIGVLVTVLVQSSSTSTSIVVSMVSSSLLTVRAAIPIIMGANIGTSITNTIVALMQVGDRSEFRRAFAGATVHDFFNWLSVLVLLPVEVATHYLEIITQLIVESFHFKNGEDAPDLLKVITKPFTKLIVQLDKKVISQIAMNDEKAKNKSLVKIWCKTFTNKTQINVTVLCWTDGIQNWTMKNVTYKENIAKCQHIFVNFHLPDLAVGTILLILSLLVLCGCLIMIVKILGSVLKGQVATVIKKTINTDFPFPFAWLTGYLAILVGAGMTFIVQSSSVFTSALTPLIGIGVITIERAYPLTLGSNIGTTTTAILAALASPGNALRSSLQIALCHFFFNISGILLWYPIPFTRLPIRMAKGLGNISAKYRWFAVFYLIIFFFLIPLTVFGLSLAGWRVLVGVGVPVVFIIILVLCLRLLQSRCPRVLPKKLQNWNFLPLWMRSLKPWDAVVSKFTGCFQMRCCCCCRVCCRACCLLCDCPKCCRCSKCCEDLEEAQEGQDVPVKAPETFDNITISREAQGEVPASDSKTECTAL

[3] = target: T4, Construct 4 (chimeric human NaPi2b, swap in NaPi2c in 341-358) (human); assay: as above
T4 construct: also called CL_#13435

[4] = target: T5, Full length human NaPi2b (sodium-dependent phosphate transporter 2B, SLC34A2) (human, UniProt O95436 1-690); assay: flow cytometry, transfected HEK293-6e cells, antibody 2 nM;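 note: transfected cells exposed to test antibody 24 h at 4 °C to block internalization, at least 1,000 events per well, background is mean MFI of unstained cells lacking primary antibody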
T5 construct: also called huNaPi2b; CL_#13432
T5 sequence: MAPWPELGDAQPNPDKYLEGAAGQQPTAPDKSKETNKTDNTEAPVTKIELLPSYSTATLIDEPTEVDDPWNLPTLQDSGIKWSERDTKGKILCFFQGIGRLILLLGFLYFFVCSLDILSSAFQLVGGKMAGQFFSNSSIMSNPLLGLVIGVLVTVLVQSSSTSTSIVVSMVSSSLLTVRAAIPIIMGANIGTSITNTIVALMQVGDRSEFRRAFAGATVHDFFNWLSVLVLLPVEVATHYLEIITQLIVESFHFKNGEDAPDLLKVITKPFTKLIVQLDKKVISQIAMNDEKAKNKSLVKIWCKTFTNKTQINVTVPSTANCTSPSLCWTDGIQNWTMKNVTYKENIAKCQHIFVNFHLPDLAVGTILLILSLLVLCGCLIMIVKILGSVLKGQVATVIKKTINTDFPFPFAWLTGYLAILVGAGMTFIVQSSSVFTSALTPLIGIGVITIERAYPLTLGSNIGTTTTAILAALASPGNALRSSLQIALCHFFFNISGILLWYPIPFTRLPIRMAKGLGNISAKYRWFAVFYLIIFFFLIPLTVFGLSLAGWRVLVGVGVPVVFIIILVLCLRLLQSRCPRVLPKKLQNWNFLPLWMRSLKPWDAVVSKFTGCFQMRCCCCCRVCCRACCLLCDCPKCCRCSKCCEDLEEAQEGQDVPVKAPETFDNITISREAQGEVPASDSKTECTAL

| Binder | EC50 (read off the curve) [1] | binding result (human NaPi2a) | Background-Subtracted AF647 Mean Fluorescence Intensity [2] | Background-Subtracted AF647 Mean Fluorescence Intensity [3] | Background-Subtracted AF647 Mean Fluorescence Intensity [4] |
| --- | --- | --- | --- | --- | --- |
| v18992 (MX35), reference anti-NaPi2b antibody (antibody, human IgG1, kappa) heavy 1: GQVQLVQSGAEVVKPGASVKMSCKASGYTFTGYNIHWVKQAPGQGLEWIGAIYPGNGDTSYKQKFRGRATLTADTSTSTVYMELSSLRSEDSAVYYCARGETARATFAYWGQGTLVTVSSASTKGPSVFPLAPSSKSTSGGTAALGCLVKDYFPEPVTVSWNSGALTSGVHTFPAVLQSSGLYSLSSVVTVPSSSLGTQTYICNVNHKPSNTKVDKKVEPKSCDKTHTCPPCPAPELLGGPSVFLFPPKPKDTLMISRTPEVTCVVVDVSHEDPEVKFNWYVDGVEVHNAKTKPREEQYNSTYRVVSVLTVLHQDWLNGKEYKCKVSNKALPAPIEKTISKAKGQPREPQVYVYPPSRDELTKNQVSLTCLVKGFYPSDIAVEWESNGQPENNYKTTPPVLDSDGSFALVSKLTVDKSRWQQGNVFSCSVMHEALHNHYTQKSLSLSPG heavy 2: not shown light: GDIQMTQSPSSLSASVGDRVTITCSASQDIGNFLNWYQQKPGKTVKVLIYYTSSLYSGVPSRFSGSGSGTDYTLTISSLQPEDFATYYCQQYSKLPLTFGQGTKLELKRTVAAPSVFIFPPSDEQLKSGTASVVCLLNNFYPREAKVQWKVDNALQSGNSQESVTEQDSKDSTYSLSSTLTLSKADYEKHKVYACEVTHQGLSSPVTKSFNRGEC | ~2 nM | no binding (tested: 200 nM) | – | – | – |
| MX35 (v18992), reference anti-NaPi2b antibody (antibody, human IgG1, kappa) heavy 1: GQVQLVQSGAEVVKPGASVKMSCKASGYTFTGYNIHWVKQAPGQGLEWIGAIYPGNGDTSYKQKFRGRATLTADTSTSTVYMELSSLRSEDSAVYYCARGETARATFAYWGQGTLVTVSSASTKGPSVFPLAPSSKSTSGGTAALGCLVKDYFPEPVTVSWNSGALTSGVHTFPAVLQSSGLYSLSSVVTVPSSSLGTQTYICNVNHKPSNTKVDKKVEPKSCDKTHTCPPCPAPELLGGPSVFLFPPKPKDTLMISRTPEVTCVVVDVSHEDPEVKFNWYVDGVEVHNAKTKPREEQYNSTYRVVSVLTVLHQDWLNGKEYKCKVSNKALPAPIEKTISKAKGQPREPQVYVYPPSRDELTKNQVSLTCLVKGFYPSDIAVEWESNGQPENNYKTTPPVLDSDGSFALVSKLTVDKSRWQQGNVFSCSVMHEALHNHYTQKSLSLSPG heavy 2: not shown light: GDIQMTQSPSSLSASVGDRVTITCSASQDIGNFLNWYQQKPGKTVKVLIYYTSSLYSGVPSRFSGSGSGTDYTLTISSLQPEDFATYYCQQYSKLPLTFGQGTKLELKRTVAAPSVFIFPPSDEQLKSGTASVVCLLNNFYPREAKVQWKVDNALQSGNSQESVTEQDSKDSTYSLSSTLTLSKADYEKHKVYACEVTHQGLSSPVTKSFNRGEC | – | – | 298 MFI | 764 MFI | 870 MFI |
| v38591 (humanized anti-NaPi2b antibody, wild-type Fc) (antibody, human IgG1, kappa, also called v38591 Wild-type; H1L2) heavy: not shown light: DVQMTQSPSSLSASVGDRVTITCRASQDVYSYLNWYQQKPGKAVKLLIYYTSRLQSGVPSRFSGSGSGTDYTLTISSLQPEDFATYYCQQYNIFPWTFGQGTKLEIKRTVAAPSVFIFPPSDEQLKSGTASVVCLLNNFYPREAKVQWKVDNALQSGNSQESVTEQDSKDSTYSLSSTLTLSKADYEKHKVYACEVTHQGLSSPVTKSFNRGEC | ~2 nM | no binding (tested: 200 nM) | – | – | – |
| v38591 (humanized anti-NaPi2b antibody, H1L2, wild-type Fc, heavy chains with C-terminal lysine) (antibody, human IgG1, kappa, Full-size human IgG1/kappa antibody; also called v38591 (wild-type Fc)) heavy: not shown light: DVQMTQSPSSLSASVGDRVTITCRASQDVYSYLNWYQQKPGKAVKLLIYYTSRLQSGVPSRFSGSGSGTDYTLTISSLQPEDFATYYCQQYNIFPWTFGQGTKLEIKRTVAAPSVFIFPPSDEQLKSGTASVVCLLNNFYPREAKVQWKVDNALQSGNSQESVTEQDSKDSTYSLSSTLTLSKADYEKHKVYACEVTHQGLSSPVTKSFNRGEC | – | – | 626 MFI | 933 MFI | 948 MFI |
| v18993 (lifastuzumab), reference anti-NaPi2b antibody (antibody, human IgG1, kappa) heavy 1: GEVQLVESGGGLVQPGGSLRLSCAASGFSFSDFAMSWVRQAPGKGLEWVATIGRVAFHTYYPDSMKGRFTISRDNSKNTLYLQMNSLRAEDTAVYYCARHRGFDVGHFDFWGQGTLVTVSSASTKGPSVFPLAPSSKSTSGGTAALGCLVKDYFPEPVTVSWNSGALTSGVHTFPAVLQSSGLYSLSSVVTVPSSSLGTQTYICNVNHKPSNTKVDKKVEPKSCDKTHTCPPCPAPELLGGPSVFLFPPKPKDTLMISRTPEVTCVVVDVSHEDPEVKFNWYVDGVEVHNAKTKPREEQYNSTYRVVSVLTVLHQDWLNGKEYKCKVSNKALPAPIEKTISKAKGQPREPQVYVYPPSRDELTKNQVSLTCLVKGFYPSDIAVEWESNGQPENNYKTTPPVLDSDGSFALVSKLTVDKSRWQQGNVFSCSVMHEALHNHYTQKSLSLSPG heavy 2: not shown light: GDIQMTQSPSSLSASVGDRVTITCRSSETLVHSSGNTYLEWYQQKPGKAPKLLIYRVSNRFSGVPSRFSGSGSGTDFTLTISSLQPEDFATYYCFQGSFNPLTFGQGTKVEIKRTVAAPSVFIFPPSDEQLKSGTASVVCLLNNFYPREAKVQWKVDNALQSGNSQESVTEQDSKDSTYSLSSTLTLSKADYEKHKVYACEVTHQGLSSPVTKSFNRGEC | ~3 nM | no binding (tested: 200 nM) | – | – | – |
| v22277 (palivizumab, anti-RSV negative control, heterodimeric Fc) (antibody, human IgG1, kappa, also called neg control) heavy 1: GQVTLRESGPALVKPTQTLTLTCTFSGFSLSTSGMSVGWIRQPPGKALEWLADIWWDDKKDYNPSLKSRLTISKDTSKNQVVLKVTNMDPADTATYYCARSMITNWYFDVWGAGTTVTVSSASTKGPSVFPLAPSSKSTSGGTAALGCLVKDYFPEPVTVSWNSGALTSGVHTFPAVLQSSGLYSLSSVVTVPSSSLGTQTYICNVNHKPSNTKVDKKVEPKSCDKTHTCPPCPAPELLGGPSVFLFPPKPKDTLMISRTPEVTCVVVDVSHEDPEVKFNWYVDGVEVHNAKTKPREEQYNSTYRVVSVLTVLHQDWLNGKEYKCKVSNKALPAPIEKTISKAKGQPREPQVYVYPPSRDELTKNQVSLTCLVKGFYPSDIAVEWESNGQPENNYKTTPPVLDSDGSFALVSKLTVDKSRWQQGNVFSCSVMHEALHNHYTQKSLSLSPG heavy 2: not shown light: GDIQMTQSPSTLSASVGDRVTITCKSQLSVGYMHWYQQKPGKAPKLLIYDTSKLASGVPSRFSGSGSGTEFTLTISSLQPDDFATYYCFQGSGYPFTFGGGTKLEIKRTVAAPSVFIFPPSDEQLKSGTASVVCLLNNFYPREAKVQWKVDNALQSGNSQESVTEQDSKDSTYSLSSTLTLSKADYEKHKVYACEVTHQGLSSPVTKSFNRGEC | – | no binding (tested: 200 nM) | – | – | – |
